Experimental findings from US20230250154A1 (CYTONICS, published 2023) are described below.

What all share (assay): cell-based or functional assay
One test concerns the target MMP13 (human, UniProt P45452 104-471, limits assumed).
The next test deals with T1, ADAMTS4 (human, UniProt O75173 213-685, limits assumed).
T1 sequence (looked up): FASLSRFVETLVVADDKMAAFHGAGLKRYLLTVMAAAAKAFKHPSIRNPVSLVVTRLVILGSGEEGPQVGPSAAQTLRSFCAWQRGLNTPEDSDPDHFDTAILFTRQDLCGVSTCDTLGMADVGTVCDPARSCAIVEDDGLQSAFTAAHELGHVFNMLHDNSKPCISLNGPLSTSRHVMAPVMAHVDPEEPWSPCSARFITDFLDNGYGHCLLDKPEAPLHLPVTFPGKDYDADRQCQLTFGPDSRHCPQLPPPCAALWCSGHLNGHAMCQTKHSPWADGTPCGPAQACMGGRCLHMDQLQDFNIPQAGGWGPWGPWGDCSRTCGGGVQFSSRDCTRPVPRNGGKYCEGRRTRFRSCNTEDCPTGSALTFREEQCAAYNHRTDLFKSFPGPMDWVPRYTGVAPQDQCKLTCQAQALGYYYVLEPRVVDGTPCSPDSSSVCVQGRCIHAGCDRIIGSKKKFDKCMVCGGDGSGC

The target in another test is T2, ADAMTS5 (human, UniProt Q9UNA0 262-622, limits assumed).
T2 sequence (looked up): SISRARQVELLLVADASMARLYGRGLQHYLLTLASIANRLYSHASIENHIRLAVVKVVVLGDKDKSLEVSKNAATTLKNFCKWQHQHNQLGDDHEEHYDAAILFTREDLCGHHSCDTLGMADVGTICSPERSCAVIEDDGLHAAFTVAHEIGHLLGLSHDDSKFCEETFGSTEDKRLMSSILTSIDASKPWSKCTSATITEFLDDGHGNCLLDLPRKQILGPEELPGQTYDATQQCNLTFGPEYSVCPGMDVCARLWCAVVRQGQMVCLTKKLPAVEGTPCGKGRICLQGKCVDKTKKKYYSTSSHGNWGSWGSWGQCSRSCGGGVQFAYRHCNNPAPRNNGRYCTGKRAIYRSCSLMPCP

B1: Variant A2M, bait region SEQ ID NO 101 (other)
chain: SVSGKPQYMVLVPSLLHTETTEKGCVLLSYLNETVTVSASLESVRGNRSLFTDLEAENDVLHCVAFAVPKSSSNEEVMFLTVQVKGPTQEFKKRTTVMVKNEDSLVFVQTDKSIYKPGQTVKFRVVSMDENFHPLNELIPLVYIQDPKGNRIAQWQSFQLEGGLKQFSFPLSSEPFQGSYKVVVQKKSGGRTEHPFTVEEFVLPKFEVQVTVPKIITILEEEMNVSVCGLYTYGKPVPGHVTVSICRKYSDASDCHGEDSQAFCEKFSGQLNSHGCFYQQVKTKVFQLKRKEYEMKLHTEAQIQEEGTVVELTGRQSSEITRTITKLSFVKVDSHFRQGIPFFGQVRLVDGKGVPIPNKVIFIRGNEANYYSNATTDEHGLVQFSINTTNVMGTSLTVRVNYKDRSPCYGYQWVSEEHEEAHHTAYLVFSPSKSFVHLEPMSHELPCGHTQTVQAHYILNGGTLLGLKKLSFYYLIMAKGGIVRTGTHGLLVKQEDMKGHFSISIPVKSDIAPVARLLIYAVLPTGDVIGDSAKYDVENCLANKVDLSFSPSQSLPASHAHLRVTAAPQSVCALRAVDQSVLLMKPDAELSASSVYNLLPEKDLTGFPGPLNDQDDEDCINRHNVYINGITYTPVSSTNEKDMYSFLEDMGLKAFTNSKIRKPKMCPQLEQYEMHGPEGLRVGEEEGGGFYESDVMGRGHARLVHVEEPHTKLRKYFPETWIWDLVVVNSAGVAEVGVTVPDTITEWKAGAFCLSEDAGLGISSTASLRAFQPFFVELTMPYSVIRGEAFTLKATVLNYLPKCIRVSVQLEASPAFLAVPVEKEQAPHCICANGRQTVSWAVTPKSLGNVNFTVSAEALESQELCGTEVPSVPEHGRKDTVIKPLLVEPEGLEKETTFNSLLCPSGGEVSEELSLKLPPNVVEESARASVSVLGDILGSAMQNTQNLLQMPYGCGEQNMVLFAPNIYVLDYLNETQQLTPEIKSKAIGYLNTGYQRQLNYKHYDGSYSTFGERYGRNQGNTWLTAFVLKTFAQARAYIFIDEAHITQALIWLSQRQKDNGCFRSSGSLLNNAIKGGVEDEVTLSAYITIALLEIPLTVTHPVVRNALFCLESAWKTAQEGDHGSHVYTKALLAYAFALAGNQDKRKEVLKSLNEEAVKKDNSVHWERPQKPKAPVGHFYEPQAPSAEVEMTSYVLLAYLTAQPAPTSEDLTSATNIVKWITKQQNAQGGFSSTQDTVVALHALSKYGAATFTRTGKAAQVTIQSSGTFSSKFQVDNNNRLLLQQVSLPELPGEYSMKVTGEGCVYLQTSLKYNILPEKEEFPFALGVQTLPQTCDEPKAHTSFQISLSVSYTGSRSASNMAIVDVKMVSGFIPLKPTVKMLERSNHVSRTEVSSNHVLIYLDKVSNQTLSLFFTVLQDVPVRDLKPAIVKVYDYYETDEFAIAEYNAPCSKDLGNADYKDDDDKGASHHHHHH
In the case of B1, the “Protease Inhibition (% of WT)” value with MMP13 is 124 % of WT; with ADAMTS4 it was 168 % of WT; with ADAMTS5, 97 % of WT.

B2: Variant A2M, bait region SEQ ID NO 99 (other)
chain: SVSGKPQYMVLVPSLLHTETTEKGCVLLSYLNETVTVSASLESVRGNRSLFTDLEAENDVLHCVAFAVPKSSSNEEVMFLTVQVKGPTQEFKKRTTVMVKNEDSLVFVQTDKSIYKPGQTVKFRVVSMDENFHPLNELIPLVYIQDPKGNRIAQWQSFQLEGGLKQFSFPLSSEPFQGSYKVVVQKKSGGRTEHPFTVEEFVLPKFEVQVTVPKIITILEEEMNVSVCGLYTYGKPVPGHVTVSICRKYSDASDCHGEDSQAFCEKFSGQLNSHGCFYQQVKTKVFQLKRKEYEMKLHTEAQIQEEGTVVELTGRQSSEITRTITKLSFVKVDSHFRQGIPFFGQVRLVDGKGVPIPNKVIFIRGNEANYYSNATTDEHGLVQFSINTTNVMGTSLTVRVNYKDRSPCYGYQWVSEEHEEAHHTAYLVFSPSKSFVHLEPMSHELPCGHTQTVQAHYILNGGTLLGLKKLSFYYLIMAKGGIVRTGTHGLLVKQEDMKGHFSISIPVKSDIAPVARLLIYAVLPTGDVIGDSAKYDVENCLANKVDLSFSPSQSLPASHAHLRVTAAPQSVCALRAVDQSVLLMKPDAELSASSVYNLLPEKDLTGFPGPLNDQDDEDCINRHNVYINGITYTPVSSTNEKDMYSFLEDMGLKAFTNSKIRKPKMCPQLEQYEMHGPEGLRVGGPPGLAPGFYESDVMGRGHARLVHVEEPHTKLLRKYFPETWIWDLVVVNSAGVAEVGVTVPDTITEWKAGAFCLSEDAGLGISSTASLRAFQPFFVELTMPYSVIRGEAFTLKATVLNYLPKCIRVSVQLEASPAFLAVPVEKEQAPHCICANGRQTVSWAVTPKSLGNVNFTVSAEALESQELCGTEVPSVPEHGRKDTVIKPLLVEPEGLEKETTFNSLLCPSGGEVSEELSLKLPPNVVEESARASVSVLGDILGSAMQNTQNLLQMPYGCGEQNMVLFAPNIYVLDYLNETQQLTPEIKSKAIGYLNTGYQRQLNYKHYDGSYSTFGERYGRNQGNTWLTAFVLKTFAQARAYIFIDEAHITQALIWLSQRQKDNGCFRSSGSLLNNAIKGGVEDEVTLSAYITIALLEIPLTVTHPVVRNALFCLESAWKTAQEGDHGSHVYTKALLAYAFALAGNQDKRKEVLKSLNEEAVKKDNSVHWERPQKPKAPVGHFYEPQAPSAEVEMTSYVLLAYLTAQPAPTSEDLTSATNIVKWITKQQNAQGGFSSTQDTVVALHALSKYGAATFTRTGKAAQVTIQSSGTFSSKFQVDNNNRLLLQQVSLPELPGEYSMKVTGEGCVYLQTSLKYNILPEKEEFPFALGVQTLPQTCDEPKAHTSFQISLSVSYTGSRSASNMAIVDVKMVSGFIPLKPTVKMLERSNHVSRTEVSSNHVLIYLDKVSNQTLSLFFTVLQDVPVRDLKPAIVKVYDYYETDEFAIAEYNAPCSKDLGNADYKDDDDKGASHHHHHH
As for B2, the “Protease Inhibition (% of WT)” value was 64 % of WT in the test with MMP13, 63 % of WT in the test with ADAMTS4 and 87 % of WT with ADAMTS5.

B3: Variant A2M, bait region SEQ ID NO 102 (other)
chain: SVSGKPQYMVLVPSLLHTETTEKGCVLLSYLNETVTVSASLESVRGNRSLFTDLEAENDVLHCVAFAVPKSSSNEEVMFLTVQVKGPTQEFKKRTTVMVKNEDSLVFVQTDKSIYKPGQTVKFRVVSMDENFHPLNELIPLVYIQDPKGNRIAQWQSFQLEGGLKQFSFPLSSEPFQGSYKVVVQKKSGGRTEHPFTVEEFVLPKFEVQVTVPKIITILEEEMNVSVCGLYTYGKPVPGHVTVSICRKYSDASDCHGEDSQAFCEKFSGQLNSHGCFYQQVKTKVFQLKRKEYEMKLHTEAQIQEEGTVVELTGRQSSEITRTITKLSFVKVDSHFRQGIPFFGQVRLVDGKGVPIPNKVIFIRGNEANYYSNATTDEHGLVQFSINTTNVMGTSLTVRVNYKDRSPCYGYQWVSEEHEEAHHTAYLVFSPSKSFVHLEPMSHELPCGHTQTVQAHYILNGGTLLGLKKLSFYYLIMAKGGIVRTGTHGLLVKQEDMKGHFSISIPVKSDIAPVARLLIYAVLPTGDVIGDSAKYDVENCLANKVDLSFSPSQSLPASHAHLRVTAAPQSVCALRAVDQSVLLMKPDAELSASSVYNLLPEKDLTGFPGPLNDQDDEDCINRHNVYINGITYTPVSSTNEKDMYSFLEDMGLKAFTNSKIRKPKMCPQLEQYEMHGPEGLRVGGYPGSSRGFYESDVMGRGHARLVHVEEPHTKLLRKYFPETWIWDLVVVNSAGVAEVGVTVPDTITEWKAGAFCLSEDAGLGISSTASLRAFQPFFVELTMPYSVIRGEAFTLKATVLNYLPKCIRVSVQLEASPAFLAVPVEKEQAPHCICANGRQTVSWAVTPKSLGNVNFTVSAEALESQELCGTEVPSVPEHGRKDTVIKPLLVEPEGLEKETTFNSLLCPSGGEVSEELSLKLPPNVVEESARASVSVLGDILGSAMQNTQNLLQMPYGCGEQNMVLFAPNIYVLDYLNETQQLTPEIKSKAIGYLNTGYQRQLNYKHYDGSYSTFGERYGRNQGNTWLTAFVLKTFAQARAYIFIDEAHITQALIWLSQRQKDNGCFRSSGSLLNNAIKGGVEDEVTLSAYITIALLEIPLTVTHPVVRNALFCLESAWKTAQEGDHGSHVYTKALLAYAFALAGNQDKRKEVLKSLNEEAVKKDNSVHWERPQKPKAPVGHFYEPQAPSAEVEMTSYVLLAYLTAQPAPTSEDLTSATNIVKWITKQQNAQGGFSSTQDTVVALHALSKYGAATFTRTGKAAQVTIQSSGTFSSKFQVDNNNRLLLQQVSLPELPGEYSMKVTGEGCVYLQTSLKYNILPEKEEFPFALGVQTLPQTCDEPKAHTSFQISLSVSYTGSRSASNMAIVDVKMVSGFIPLKPTVKMLERSNHVSRTEVSSNHVLIYLDKVSNQTLSLFFTVLQDVPVRDLKPAIVKVYDYYETDEFAIAEYNAPCSKDLGNADYKDDDDKGASHHHHHH
For the molecule B3, the “Protease Inhibition (% of WT)” value with MMP13 is 127 % of WT; with ADAMTS4 it was 187 % of WT; in the test with ADAMTS5, 354 % of WT.
